Laboratory results as given in patent US20230203177A1 (Bristol-Myers Squibb, published 2023).

Experiments:
[1] = biological target: T1, soluble human CD40 extracellular domain (human, UniProt P25942 21-193); assay: SPR, purified Ab on protein A chip, soluble hCD40 ECD analyte, Fc2-1, n=3 global fit
T1 construct: Produced in house; also called hCD40; soluble hCD40 extracellular domain
Protocol: (§1) A Series S Protein A sensor chip (GE Healthcare, Chicago Ill.) was equilibrated with SPR running buffer of 10 mM NaPO₄, 130 mM NaCl, 0.05% tween 20, (PBS-T) pH 7.2 at 25° C. […] After priming the system, the 3 μg/ml antibody samples were captured on the protein A surface for 30 s at 10 μl/min Binding of 50 nM and 500 nM human CD40 extracellular domain (produced in house) was evaluated using association time of 180 s at 30 μl/min, followed by a dissociation time of 180 s at 30 μl/min Regeneration between cycles was accomplished using two 15 s injections of 10 mM glycine pH 1.5. […] Data were analyzed using BIAcore™ T200 evaluation software by fitting to a 1:1 Langmuir model.

[2] = biological target: T1, soluble human CD40 extracellular domain; assay: SPR, purified Ab on protein A chip, soluble hCD40 ECD analyte, Fc3-1, n=3 global fit
[3] = biological target: T1, soluble human CD40 extracellular domain; assay: SPR, Ab captured from supernatant on protein A, hCD40 ECD analyte; antibody captured out of supernatant
Protocol: The titer data (Table 21) were used to normalize the antibody concentration in each supernatant to 3 μg/ml, and these antibodies were captured out of the supernatants on a protein A CMS Series S sensor chip (GE Healthcare), and tested for binding to two concentrations (5 nM and 50 nM) of soluble hCD40 extracellular domain.
CD40 binding SPR of antibody supernatants: Surface plasmon resonance (SPR) studies were conducted on a BIAcore™ T200 instrument (GE Healthcare, Chicago Ill.). A Series S Protein A sensor chip (GE Healthcare, Chicago Ill.) was equilibrated with SPR running buffer of 10 mM NaPO₄, 130 mM NaCl, 0.05% tween 20, (PBS-T) pH 7.2 at 25° C. The 96 antibody supernatants were normalized to a concentration of 3 μg/ml by diluting with PBS-T using a PerkinElmer JANUS® G3 system (PerkinElmer, Akron, Ohio). After priming the system, the 3 μg/ml antibody samples were captured on the protein A surface for 30 s at 10 μl/min Binding of 50 nM and 500 nM human CD40 extracellular domain (produced in house) was evaluated using association time of 180 s at 30 μl/min, followed by a dissociation time of 180 s at 30 μl/min Regeneration between cycles was accomplished using two 15 s injections of 10 mM glycine pH 1.5. […] Data were analyzed using BIAcore™ T200 evaluation software by fitting to a 1:1 Langmuir model.

[4] = biological target: T1, soluble human CD40 extracellular domain; assay: SPR, purified Ab on protein A, 6 concentrations of hCD40 ECD, mean of 3; purified antibody, mean of three measurements
Protocol: (§2) Additionally, to more accurately define the dissociation rate (kd), a longer dissociation time of 360 seconds (s) was used as opposed to the shorter 180 s dissociation that had been used in the supernatant screening experiment.
(§3) CD40 binding SPR: SPR studies of the purified antibodies were conducted on BIAcore™ T200 instrument (GE Healthcare, Chicago Ill.). A Series S Protein A sensor chip (GE Healthcare, Chicago Ill.) was equilibrated with SPR running buffer of 10 mM NaPO₄, 130 mM NaCl, 0.05% tween 20, (PBS-T) pH 7.2 at 25° C. The purified antibody samples were diluted to 3 μg/ml in PBS-T and captured on the protein A surface for 30 s at 10 μl/min Binding of 3.91, 7.81, 15.6, 31.3, 62.5, and 125 nM human CD40 extracellular domain (produced in house) was evaluated using association time of 180 s at 30 μl/min, followed by a dissociation time of 360 s at 30 μl/min Regeneration between cycles was accomplished using two 15 s injections of 10 mM glycine pH 1.5. […] Data were analyzed using BIAcore™ T200 evaluation software by fitting to a 1:1 Langmuir model.

[5] = biological target: human CD40 on primary human tonsillar B cells (human, UniProt P25942 21-277); assay: cell-based or functional assay
Sequence of human CD40 on primary human tonsillar B cells (P25942 21-277 limits assumed): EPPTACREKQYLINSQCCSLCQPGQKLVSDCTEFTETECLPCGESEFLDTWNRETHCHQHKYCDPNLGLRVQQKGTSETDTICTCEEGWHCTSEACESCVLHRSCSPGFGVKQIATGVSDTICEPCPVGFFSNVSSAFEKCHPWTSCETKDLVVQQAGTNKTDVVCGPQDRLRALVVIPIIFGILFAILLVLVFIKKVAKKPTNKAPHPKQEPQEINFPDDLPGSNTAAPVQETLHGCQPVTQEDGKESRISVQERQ

[6] = biological target: T1, soluble human CD40 extracellular domain; assay: SPR, purified Ab on protein A, 6 concentrations of hCD40 ECD, mean of 3
Protocol: as §2, §3

[7] = biological target: T1, soluble human CD40 extracellular domain; assay: SPR, purified Ab on protein A chip, soluble hCD40 ECD analyte, Fc4-1, n=3 global fit
Protocol: as §1

[8] = biological target: T1, soluble human CD40 extracellular domain; assay: SPR, Ab captured from supernatant on protein A, hCD40 ECD analyte
Method in brief: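 Biacore T200, 25 °C, PBS-T pH 7.2; antibodies (3 μg/ml, supernatants titre-normalised) captured on protein A chip 30 s. Human CD40 ECD analyte (5 and 50 nM, or 50 and 500 nM), 180 s association and 180 s dissociation at 30 μl/min; 1:1 Langmuir fit.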

[9] = biological target: T1, soluble human CD40 extracellular domain; assay: SPR, antibody captured from supernatant on protein A chip, soluble hCD40 ECD at 5 and 50 nM (summary table of the 16 chosen antibodies)
[10] = biological target: T1, soluble human CD40 extracellular domain; assay: SPR, purified Ab on protein A, 6 concentrations of hCD40 ECD
Protocol: as §2, §3

T1 sequence (P25942 21-193 limits assumed): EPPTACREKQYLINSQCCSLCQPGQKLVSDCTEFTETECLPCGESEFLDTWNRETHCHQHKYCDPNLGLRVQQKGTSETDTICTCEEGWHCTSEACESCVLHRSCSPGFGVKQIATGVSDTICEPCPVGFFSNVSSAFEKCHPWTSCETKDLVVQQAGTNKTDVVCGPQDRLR

| Binder | IC50, inhibition of tonsillar human B cell proliferation stimulated by IZ-hCD40L trimer [5] [µg/mL] | IC50, inhibition of tonsillar human B cell proliferation stimulated by hCD40L expressing CHO cells [5] [µg/mL] | Kd [8] [nM] | Kd [9] [nM] | Kd [10] [nM] | koff [10] [s⁻¹] | kon [10] [M⁻¹ s⁻¹] | further results |
| --- | --- | --- | --- | --- | --- | --- | --- | --- |
| BMS-986325 (antibody, human IgG1, kappa, IgG1-P238K; purified lots and supernatant M1 treated as one molecule; also called M1 (wt); Y12XX-hz28) heavy: not shown light: DIQMTQSPSFLSASVGDRVTITCKASQDVSTAVAWYQQKPGKAPKLLIYSASYRYTGVPSRFSGSGSGTDFTLTISSLQPEDFATYYCQQHYSTPWTFGGGTKVEIKRTVAAPSVFIFPPSDEQLKSGTASVVCLLNNFYPREAKVQWKVDNALQSGNSQESVTEQDSKDSTYSLSSTLTLSKADYEKHKVYACEVTHQGLSSPVTKSFNRGEC | – | – | – | – | – | – | – | Kd [1]: 4.4 nM; koff [1]: 0.00087 s⁻¹; kon [1]: 200000 M⁻¹ s⁻¹; Kd [2]: 4.5 nM; koff [2]: 0.00091 s⁻¹; kon [2]: 200000 M⁻¹ s⁻¹; Kd [3]: 4.2 nM; kon [4]: 220000 M⁻¹ s⁻¹; IC50, inhibition of tonsillar human B cell proliferation stimulated by IZ-hCD40L trimer (BMS-986325-WT P1-071223-1 lot 1) [5]: 0.0012 µg/mL; IC50, inhibition of tonsillar human B cell proliferation stimulated by IZ-hCD40L trimer (BMS-986325-WT P1-071223-3 lot 3) [5]: 0.0056 µg/mL; IC50, inhibition of tonsillar human B cell proliferation stimulated by IZ-hCD40L trimer (BMS-986325 P1-073346-1) [5]: 0.0014 µg/mL; IC50, inhibition of tonsillar human B cell proliferation stimulated by hCD40L expressing CHO cells (BMS-986325-WT P1-071223-1 lot 1) [5]: 0.042 µg/mL; IC50, inhibition of tonsillar human B cell proliferation stimulated by hCD40L expressing CHO cells (BMS-986325-WT P1-071223-3 lot 3) [5]: 0.0314 µg/mL; IC50, inhibition of tonsillar human B cell proliferation stimulated by hCD40L expressing CHO cells (BMS-986325 P1-073346-1) [5]: 0.047 µg/mL; Kd [6]: 3.1 nM; koff [6]: 0.00066 s⁻¹; Kd [7]: 4.4 nM; koff [7]: 0.00091 s⁻¹; kon [7]: 210000 M⁻¹ s⁻¹ |
| M62 (HC-K74T / LC-K45Q,R54Q,R61Q) (antibody, human IgG1, kappa, V domains shown, IgG1-P238K; also called HC14/LC4) VH: QVQLVQSGAEVKKPGSSVKVSCKASGYAFTSYWMHWVRQAPGQGLEWMGQINPTTGRSQYNEKFKTRVTITADTSTSTAYMELSSLRSEDTAVYYCARWGLQPFAYWGQGTLVTVSS VL: DIQMTQSPSFLSASVGDRVTITCKASQDVSTAVAWYQQKPGKAPQLLIYSASYQYTGVPSQFSGSGSGTDFTLTISSLQPEDFATYYCQQHYSTPWTFGGGTKVEIKR | 0.0062 | 0.356 | 3.1 | 3.1 | 2.2 | 0.00066 | 300000 | – |
| M81 (HC-wt / LC-K107Q,R108Q) (antibody, human IgG1, kappa, IgG1-P238K; also called HC1/LC6) heavy: not shown light: DIQMTQSPSFLSASVGDRVTITCKASQDVSTAVAWYQQKPGKAPKLLIYSASYRYTGVPSRFSGSGSGTDFTLTISSLQPEDFATYYCQQHYSTPWTFGGGTKVEIQQTVAAPSVFIFPPSDEQLKSGTASVVCLLNNFYPREAKVQWKVDNALQSGNSQESVTEQDSKDSTYSLSSTLTLSKADYEKHKVYACEVTHQGLSSPVTKSFNRGEC | 0.0007 | 0.0257 | 4.1 | 4.1 | 3 | 0.0007 | 240000 | – |
| M80 (HC-K63Q / LC-R61Q) (antibody, human IgG1, kappa, V domains shown, IgG1-P238K; also called HC16/LC5) VH: QVQLVQSGAEVKKPGSSVKVSCKASGYAFTSYWMHWVRQAPGQGLEWMGQINPTTGRSQYNEQFKTRVTITADKSTSTAYMELSSLRSEDTAVYYCARWGLQPFAYWGQGTLVTVSS VL: DIQMTQSPSFLSASVGDRVTITCKASQDVSTAVAWYQQKPGKAPKLLIYSASYRYTGVPSQFSGSGSGTDFTLTISSLQPEDFATYYCQQHYSTPWTFGGGTKVEIKR | 0.0164 | 0.369 | 4.1 | 4.1 | 2.9 | 0.0007 | 240000 | – |
| M54 (HC-K12V,K19S,K23A / LC-K45Q,R54Q,R61Q) (antibody, human IgG1, kappa, V domains shown, IgG1-P238K; also called HC6/LC4) VH: QVQLVQSGAEVVKPGSSVSVSCAASGYAFTSYWMHWVRQAPGQGLEWMGQINPTTGRSQYNEKFKTRVTITADKSTSTAYMELSSLRSEDTAVYYCARWGLQPFAYWGQGTLVTVSS VL: DIQMTQSPSFLSASVGDRVTITCKASQDVSTAVAWYQQKPGKAPQLLIYSASYQYTGVPSQFSGSGSGTDFTLTISSLQPEDFATYYCQQHYSTPWTFGGGTKVEIKR | 0.0033 | 0.201 | 3 | 3 | 2.3 | 0.00075 | 330000 | – |
| M63 (HC-R67Q / LC-K45Q,R54Q,R61Q) (antibody, human IgG1, kappa, V domains shown, IgG1-P238K; also called HC15/LC4) VH: QVQLVQSGAEVKKPGSSVKVSCKASGYAFTSYWMHWVRQAPGQGLEWMGQINPTTGRSQYNEKFKTQVTITADKSTSTAYMELSSLRSEDTAVYYCARWGLQPFAYWGQGTLVTVSS VL: DIQMTQSPSFLSASVGDRVTITCKASQDVSTAVAWYQQKPGKAPQLLIYSASYQYTGVPSQFSGSGSGTDFTLTISSLQPEDFATYYCQQHYSTPWTFGGGTKVEIKR | 0.0057 | 0.208 | 2.4 | 2.4 | 1.8 | 0.00073 | 400000 | – |
